The text below walks through data of patent US20110165175A1 (AFFIMED THERAPEUTICS, published 2011).

Broadly, the IC50 is the concentration that inhibits the measured activity by half. The low end stands for greater potency, the high end for weaker potency. For orientation: EC50 means the midpoint of the concentration-response curve. A high value points to a need for much substance.

“And” between values parts separate entries of the source, which are not always exact repeats. Identical values can stand only once.

Assay [1] concerns the target T1, platelet integrin receptor GPIIb/IIIa (alpha IIb/beta 3), activated state, on ADP-activated human platelets (human, UniProt P08514 32-1039; P05106 27-788).
T1 construct: whole, on cells; The assays were on whole platelets
As to the kind of experiment: FACS, inhibition of fibrinogen binding to activated human platelets. On the technique in general: Flow cytometry measures light scatter and fluorescence of single cells or particles in a stream.

Assay [2] deals with platelet integrin receptor GPIIb/IIIa (alpha IIb/beta 3), activated state, on ADP-activated human platelets (human) (UniProt P08514). Description: flow cytometry, inhibition of fibrinogen binding to ADP-activated platelets in whole blood.
Assay [3] shares this target. Description: flow cytometry, ratio against non-activated platelets at the same scFv concentration (FIG. 23 B).
Assay [4] has the same target. Description: flow cytometry, inhibition of fibrinogen binding to ADP-activated platelets in whole blood, 4-parameter logistic fit.
For assay [5] the target is unchanged. As to the kind of experiment: flow cytometry, ADP-activated platelets in diluted human whole blood, scFv at 0.1 µg/mL, background of secondary reagent subtracted.
The target of assay [6] is platelet integrin receptor GPIIb/IIIa (alpha IIb/beta 3), non-activated state, on non-activated human platelets (human) (UniProt P08514). Description: flow cytometry, non-activated platelets in diluted human whole blood, scFv at 0.1 µg/mL, background of secondary reagent subtracted.
Assay [7] has as its target platelet integrin receptor GPIIb/IIIa (alpha IIb/beta 3), activated state, on ADP-activated human platelets (human) (UniProt P08514). As to the kind of experiment: flow cytometry, ADP-activated platelets in diluted human whole blood, scFv at 3.9×10^-2 µg/mL, background of secondary reagent subtracted.
Assay [8] shares this target. Description: flow cytometry, ADP-activated platelets in diluted human whole blood, scFv at 4.9×10^-3 µg/mL, background of secondary reagent subtracted.
For assay [9] the target is unchanged. Description: flow cytometry, ADP-activated platelets in diluted human whole blood, scFv at 9.8×10^-3 µg/mL, background of secondary reagent subtracted.
Assay [10] has as its target platelet integrin receptor GPIIb/IIIa (alpha IIb/beta 3), non-activated state, on non-activated human platelets (human) (UniProt P08514). As to the kind of experiment: flow cytometry, non-activated platelets in diluted human whole blood, scFv at 3.9×10^-2 µg/mL, background of secondary reagent subtracted.
Assay [11] has the same target. As to the kind of experiment: flow cytometry, non-activated platelets in diluted human whole blood, scFv at 4.9×10^-3 µg/mL, background of secondary reagent subtracted.
The target is the same in assay [12]. Description: flow cytometry, non-activated platelets in diluted human whole blood, scFv at 9.8×10^-3 µg/mL, background of secondary reagent subtracted.
The target in assay [13] is platelet integrin receptor GPIIb/IIIa (alpha IIb/beta 3), activated state, on ADP-activated human platelets (human) (UniProt P08514). As to the kind of experiment: flow cytometry, ADP-activated platelets in diluted human whole blood, scFv at 2.0×10^-3 µg/mL as printed, background of secondary reagent subtracted.
For assay [14], the target named is platelet integrin receptor GPIIb/IIIa (alpha IIb/beta 3), non-activated state, on non-activated human platelets (human) (UniProt P08514). As to the kind of experiment: flow cytometry, non-activated platelets in diluted human whole blood, scFv at 2.0×10^-3 µg/mL as printed, background of secondary reagent subtracted.

B1: MB9 scFv (scFv)
scFv: MAEVQLVQSGAEVNKPGASVKVSCKASGYTFTGYYMHWVRQAPGQGLEWMGWINPNSGGTNYAQKFQGWVTMTRDTSISTAYMELSRLRSDDTAVYYCARGRALYNRNDRSPNWFDPWGQGTLVTVSSGSASAPTLKLEEGEFSEARVQAVLTQPPSVSVAPGQTARITCGGNNIGSKSVQWYQQKPGQAPVLVVYDDSDRPSGIPERFSGSNSGNMATLTISRVEAGDEADYYCQVWDSSSDHVVFGGGTKLTVLGQPKAAPSVTLFPPSAAAGSHHHHHH
notes: Human scFv from the natural IgM phage library, 31 kDa, detected through a His tag; also called clone MB9; MA2
As to B1, the IC50 in assay [1] was 1.1 µg/mL and 35 nM.

B2: ReoPro (abciximab, Centocor/Eli Lily) (Fab, INN chains, looked up, V domains shown)
VH: EVQLQQSGTVLARPGASVKMSCEASGYTFTNYWMHWVKQRPGQGLEWIGAIYPGNSDTSYIQKFKGKAKLTAVTSTTSVYMELSSLTNEDSAVYYCTLYDGYYVFAYWGQGTLVTVSA
VL: EIVLTQSPVTLSVTPGDSVSLSCRASRDISNNLHWFQQTSHESPRLLIKYASQSMSGIPSRFSGSGSGTDFTLSINSVETEDFGMYFCQQTNSWPYTFGGGTKLEIK
modifications: Fab
In assay [2], B2 had an EC50 of 0.16 µg/mL.

B3: human anti-gpIIb/IIIa single chain antibody (scFv) SCE5 (scFv, V domains shown, not shown: small tags and cut ends)
VH: QVQLQESGGGLVQPGGSLRLSCAASGFMFSRYAMSWVRQAPGKGPEWVSGISGSGGSTYYADSVKGRFTVSRDNSKNTLYLQMNSLRAEDTAVYYCARGATYTSRSDVPDQTSFDYWGQGTLVTVSS
VL: SSELTQDPAVSVALGQTVRITCQGDSLRNFYASWYQQKPGQAPTLVIYGLSKRPSGIPDRFSASSSGNTASLTITGAQAEDEADYYCLLYYGGGQQGVFGGGTKLTVL
modifications: linker and His tag
Take B3: the concentration at which the inhibitory effect starts in assay [2] was 0.1 to 0.2 µg/mL. This molecule displayed a concentration of maximal inhibitory effect in assay [2] of 10 µg/mL. In assay [3], the fluorescence on activated platelets divided by fluorescence on non-activated platelets was found to be 10 times. The molecule also gave an EC50 in [4] of 0.94 µg/mL. Besides, the fluorescence signal value turned out to be 4.15 in assay [5]; 0.16 in assay [6]; 2.84 in [7]; 0.265 in assay [8]; 0.612 in [9]; 0.05 in [10]. The fluorescence signal value in assay [11] came out at 0.013; in [12], 0.015; in [13] it was 1.33; in assay [14], 0.027.
